Experimental data as given in the supplement of paper PMC11811203.

B1: THAP1; numbered along this chain (parent)
chain: MVQSCSAYGCKNRYDKDKPVSFHKFPLTRPSLCKEWEAAVRRKNFKPTKYSSICSEHFTPDCFKRECNNKLLKENAVPTIFLCTEPHDKKEDLLEPQEQLPPPPLPPPVSQVDAAIGLLMPPLQTPVNLSVFCDHNYTVEDTMHQRKRIHQLEQQVEKLRKKLKTAQQRCRRQERQLEKLKEVVHFQKEKDDVSERGYVILPNDYFEIVEVPA

Variants of: B1
Experiment: THAP1 transcriptional activity (GFP+/GFP- enrichment relative to wild-type constructs) (ratio to WT); higher = more THAP1 activity (PSMB5 reporter activation)
Details: with PSMB5 promoter-GFP reporter
Method in brief: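 In duplicate, a lentivirus-delivered library with every residue from 2–213 of human THAP1 changed to all 20 amino acids was introduced at MOI ~0.3 into THAP1-knockout HEK-293T cells carrying endogenous PSMB5 tagged by mClover3 knock-in. Five days on, BFP+ cells were binned as GFP-dim or GFP-bright, and Illumina sequencing of genomic DNA amplicons counted each variant. Activity is the bright/dim read fold change, averaged over replicates and scaled to the mean of wild-type synonymous constructs.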

THAP1 transcriptional activity, by site and new letter:
P104: Q 1.88 | R 0.888 | E 1.85 | G 1.2 | V 2.16 | F 0.865 | Y 0.704 | C 0.986 | M 0.907 | T 1.39 | K 1.14 | S 2.12 | D 6.01 | I 0.946 | W 0.527 | A 1.09
D88: I 0.371 | S 1.92 | M 0.615 | T 0.582 | Q 1.12 | Y 0.858 | V 0.781 | K 1.56 | L 1.3 | W 0.937 | N 0.665
P107: I 0.533 | F 0.519 | M 1.29 | S 1.14 | T 1.04 | C 0.851 | Y 1.42 | H 0.688 | R 0.608 | E 1.58 | G 1.11 | W 0.215 | L 1.74 | Q 1.2 | D 1.21 | A 1.2 | N 0.608 | K 1.6
L100: S 2.08 | P 1.9 | G 0.906 | R 1.46 | T 1.6 | K 1.18 | V 1.84 | D 1.66 | Y 0.692 | M 2.37 | C 0.796 | A 1.25 | W 0.65 | Q 1.41 | I 1.56 | H 0.606
L94: C 0.962 | A 1.59 | G 1.56 | P 1.67 | V 1.47 | M 1.84 | T 1.14 | Y 1.34 | I 2.23 | D 1.28 | S 1.71 | W 0.914 | R 2.34 | E 1.42
E95: R 1.65 | A 1.46 | I 1.13 | P 1.22 | M 0.897 | L 0.979 | C 1.23 | N 1.31 | S 1.02 | Q 1.81 | K 1.66 | D 1.16 | V 0.815 | G 1.26 | H 1.29 | Y 1.04
P106: Y 1.49 | D 1.76 | R 1.58 | H 0.72 | E 2.61 | M 1.23 | L 0.994 | V 1.39 | K 1.89 | T 1.33 | W 0.703 | N 1.89 | I 1.07 | C 1.25 | F 0.72 | S 2.1
P96: A 1.82 | R 1.45 | H 0.971 | V 0.729 | F 0.885 | I 0.683 | E 0.84 | T 1.6 | K 1.37 | W 0.452 | Q 0.834 | D 1.15 | G 1.55 | C 0.965 | S 1.72 | N 2.72 | L 1.58
L105: F 0.955 | M 1.81 | N 1.92 | Y 0.831 | K 1.34 | E 1.27 | I 2.11 | T 1.56 | G 1.09 | H 1.54 | C 1.32 | S 2.43 | W 0.491 | A 1.61
K89: E 1.6 | Q 1.32 | T 1.3 | R 0.657 | L 1.64 | G 1.41 | M 0.476 | I 1.1 | F 1.17 | N 1.86 | P 0.989 | S 2.9 | D 1.33 | W 0.592 | V 1.41 | A 0.888 | H 1.44 | C 1.4
Q99: N 2.66 | H 1.07 | F 0.667 | G 1.87 | A 0.795 | S 0.884 | W 0.514 | V 0.773 | D 0.731 | P 1.81 | L 1.11 | R 1.3 | I 1.32 | E 1.22 | K 1.5 | C 0.535 | T 1.16
L93: V 1.15 | C 1.36 | I 1.37 | S 0.575 | H 1.01 | F 0.989 | G 1.26 | M 0.701 | Y 1.08 | N 1.51 | W 1.12 | K 0.898 | P 1.58 | A 1.26 | Q 1.67 | T 1.14 | D 1.14 | E 1.43
P102: S 1.09 | C 1.36 | T 0.743 | G 2.33 | W 1.02 | V 2.39 | L 1.12 | A 1.01 | F 0.858 | E 1.85 | Q 3.01 | N 1.12 | D 2 | R 1.43 | M 0.907 | H 1.04 | I 1.31
Q97: R 0.945 | I 2.53 | L 1.55 | S 0.872 | E 1.24 | K 0.467 | M 1.09 | W 0.632 | P 1.25 | N 0.877 | G 0.874 | C 1.33 | Y 0.765 | V 0.752 | T 1.88 | H 0.853 | F 1.2 | A 0.83 | D 1.45
P108: F 0.519 | A 1.3 | H 1.01 | G 1.24 | I 1.18 | E 1.26 | C 0.724 | D 1.66
K90: L 0.82 | A 1.95 | N 1.49 | G 1.6 | F 0.963 | E 2.91 | Q 2.35 | R 0.598 | W 0.775 | D 0.818 | P 1.06 | T 1.43 | H 0.995 | C 1.03 | S 1.77 | I 1.52 | Y 0.498 | M 1.03
P101: L 1.19 | T 1.5 | G 1.27 | V 0.772 | C 0.582 | H 0.968 | A 1.1 | Q 1.61 | N 3.11 | S 1.96 | Y 1.08 | I 1.27 | W 0.985 | F 0.64 | K 1.21 | R 1.3
P103: Y 0.902 | H 0.719 | F 0.27 | S 1.1 | E 1.22 | N 0.938 | R 1.56 | V 1.04 | W 0.806 | D 1.44 | K 1.31 | L 1.61 | M 0.728 | Q 1.15 | T 1.19
E98: I 1.74 | A 1.51 | L 0.875 | V 1.56 | K 1.43 | Y 0.675 | P 0.816 | T 1.66 | S 1.19 | W 0.567 | F 0.462 | H 0.824 | D 1.77 | G 1.03 | M 0.62 | N 1.21 | R 0.908 | Q 1.69 | C 0.653
E91: S 1.71 | L 0.546 | M 0.596 | P 0.793 | I 0.999 | Q 1.02 | W 0.619 | D 1.04 | N 0.857 | G 1.01 | V 0.513 | T 0.885 | Y 0.85 | F 0.403 | A 0.844 | K 2.46
D92: R 1.57 | G 0.763 | Y 0.942 | A 1.55 | K 1.22 | F 0.641 | M 0.739 | W 0.658 | N 1.64 | I 2.59 | V 0.743 | C 0.866 | T 0.984 | P 1.64 | E 1.44
